This passage reports Kd results from patent US20240158511A1 (GENERAL HOSPITAL, published 2024).

The target in test [1] is T1, A-domain of CD11b (UniProt P11215 139-337).
T1 construct: domain: A-domain; Used as the ligand in BLI (Octet); also called CD11b A-domain; CD11bA domain
Put plainly: BLI (Octet), A-domain of CD11b as ligand. The procedure: Production, purification, and evaluation: Expi293 cells (Thermo Fisher) were used to produce recombinant antibodies. Cells were grown on orbital shaker (125 rpm) in Expi293 Expression Medium (Thermo Fisher) at 37° C. in 5% CO2. Expi293 cells were transiently transfected with 1:1 heavy chain and light chain plasmids, using manufacturer's protocol. Culture supernatant was harvested after one week, and IgG was purified using Protein G agarose beads (Thermo Scientific). We routinely obtained 1-3 mg of purified IgG per 100 ml of cell culture. The protein sizes of the heavy and light chains and purity of the IgG were confirmed on SDSPAGE. Affinity of the humanized mAb107 vs. mouse mAb107 was measured using the A-domain of CD11b as ligand by Bio-layer interferometry (BLI) using the Octet Assay system.

Test [2] concerns the target T1, A-domain of CD11b. Description: assay not given; presumably BLI on the CD11b A-domain as in Example 1; lower end of the printed range 5-9 nM.

T1 sequence (P11215 139-337 limits assumed): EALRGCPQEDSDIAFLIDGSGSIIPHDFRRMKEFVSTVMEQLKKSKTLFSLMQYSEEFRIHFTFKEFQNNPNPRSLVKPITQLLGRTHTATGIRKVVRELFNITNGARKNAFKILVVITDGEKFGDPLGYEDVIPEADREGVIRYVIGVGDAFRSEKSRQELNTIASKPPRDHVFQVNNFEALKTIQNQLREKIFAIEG

B1: humanized N55D-substituted mAb107 (humanized IgG4κ mAb107) (antibody, V domains shown)
VH: QVQLVQSGAEVKKPGASVKVSCKPSGFNIKDIYMQWVRQAPGQRLEWIGRIDPADDKTKYDPKFQGRATITADTSASTAYLELSSLRSEDTAVYYCASEGHYGYDGYAMDYWGQGTTVTVSS
VL: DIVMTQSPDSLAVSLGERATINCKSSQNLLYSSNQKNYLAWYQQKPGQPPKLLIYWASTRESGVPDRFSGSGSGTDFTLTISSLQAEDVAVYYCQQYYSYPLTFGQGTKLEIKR
notes: The VH was joined to a human IgG4 constant region and the VL to a human kappa constant region; also called humAb107; humanized mAb107
B1: the Kd with A-domain of CD11b [1] was 5 to 9 nM.

B2: Humanized mutagenized mAb107 IgG4k heavy chain V5 (antibody, V domains shown)
VH: QVQLVQSGAEVKKPGASVKVSCKPSGFNIKDIYMQWVRQAPGQRLEWIGRIDPADDKTKYDPKFQGRATITADTSASTAYLELSSLRSEDTAVYYCASEGHYGYDGYAMDYWGQGTTVTVSS
VL: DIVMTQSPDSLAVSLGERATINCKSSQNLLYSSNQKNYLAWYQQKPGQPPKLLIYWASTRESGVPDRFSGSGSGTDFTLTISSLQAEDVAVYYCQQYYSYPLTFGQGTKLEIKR
notes: The residue limits were counted on the printed translation; The heavy chain carries the N-to-D substitution in CDR2 and S228P in the IgG4 hinge; also called Humanized mutagenized anti-CD11b; humanized IgG4κ mAb107 containing Pro 228
Turning to B2, the Kd with A-domain of CD11b [2] was 5 to 9 nM.
